The values that follow come from US20160289285A1 (Molecular Partners, published 2016).

The target in one experiment is T1, human serum albumin (human, UniProt P02768 25-609).
T1 construct: For SEC-MALS purified from CSL Behring 20% solution; also called HSA; SA (human)
The experiment in a line: ELISA, immobilised human serum albumin. As to the method:
100 μl or 50 μl of 20 nM target (VEGF-A, HGF, or serum albumin) in PBS per well were immobilized in a Maxisorp plate (Nunc, Denmark) overnight at 4° C. After washing 5 times with 300 μl PBST (PBS supplemented with 0.1% Tween 20), the wells were blocked with 300 μl PBST-C (PBST supplemented with 0.25% casein) for 2 h at room temperature with shaking at 450 rpm on a Titramax 1000 shaker (Heidolph, Germany). […] After washing 5 times as described above, bound anti-designed ankyrin repeat domain antibody was detected using 100 μl or 50 μl/well goat anti-rabbit IgG-HRP conjugate in PBST-C for 1 h at room temperature with shaking at 450 rpm. After washing 5 times as described above, the ELISA was then developed using 100 μl BM soluble blue POD substrate (Roche, Switzerland), diluted 1:4 in water. The reaction was stopped after 5 min using 100 μl 1 M H₂SO₄. The OD (OD 450 nm-OD 620 nm) was then recorded.
Cynomolgus monkey VEGF-A is identical to human VEGF-A and was thus not tested separately.
(An ELISA detects its analyte on a solid surface through an enzyme-linked reagent.)

Experiment [1] addresses T2, human HGF (human, UniProt P14210 32-728).
T2 construct: also called hepatocyte growth factor
Description: SPR (ProteOn). As to the method: SPR was measured using a ProteOn instrument (BioRad) and measurement was performed according standard procedures known to the person skilled in the art.

For experiment [2], the target named is T2, human HGF. Description: cMet receptor competition ELISA; 5 nM human HGF, immobilised human cMet. The source says: (§1) Such assays are well known to the person skilled in the art. For designed ankyrin repeat domains with binding specificity to VEGF-A, a quantitative sandwich enzyme immunoassay technique was used according to the manufacturer (VEGF-A Quantikine kit DVE00, R&D Systems). A monoclonal antibody specific for VEGF-A was pre-coated onto a microplate. VEGF-A standards and mixtures of VEGF-A (20 pM) and Protein #18, #19, or #20 at varying concentrations were applied to the wells and any free VEGF-A present (i.e. not bound to the designed ankyrin repeat domain) is bound by the immobilized antibody. After washing away any unbound substances, an enzyme-linked polyclonal antibody specific for VEGF-A is added to the wells. Following a wash to remove any unbound antibody-enzyme reagent, a substrate solution is added to the wells and color develops in proportion to the amount of VEGF-A bound in the initial step. The color development is stopped and the intensity of the color is measured. […] IC₅₀ values were calculated from such titration curves obtained as described above using Graph Pad Prism software and standard procedures known to the person skilled in the art. For designed ankyrin repeat domains with binding specificity to HGF, a cMet receptor competition assay was performed. For that purpose, 5 nM of human cMet receptor in PBS were immobilized on Maxisorp plates overnight at 4° C. After washing with PBS 0.05% TWEEN 20, the plate was blocked for 2 h with shaking at 300 rpm using PBS containing 0.05% TWEEN 20 and 0.25% Casein at RT. A constant concentration of 5 nM human HGF was pre-incubated for 30 min at RT with a 1000 nM-1 pM of Proteins #23, #26, #28, and #29 (1:4 dilution series each) on a dilution plate in PBS 0.05% TWEEN 20. After washing of the ELISA plate with PBS 0.05% TWEEN, pre-incubated samples were transferred to the ELISA plate and plate was incubated for 2 h at RT with shaking at 300 rpm. After washing with PBS 0.25% TWEEN, 200 ng/ml anti human HGF antibody was added for 1 h at RT with shaking at 300 rpm. After washing with PBS 0.05% TWEEN, 100 ng/ml HRP conjugated polyclonal anti HGF species antibody was added for 30 min at RT with shaking at 300 rpm. Detection was using 1:3 diluted BM blue POD (Roche).

In experiment [3] the target is T3, human VEGF-A (human, UniProt P15692-4 27-191, limits assumed).
T3 construct: Recombinant, bought or produced in CHO or Pichia pastoris; also called hVEGF-A
T3 sequence (P15692 other isoform, or with tags, fused parts or gaps limits assumed): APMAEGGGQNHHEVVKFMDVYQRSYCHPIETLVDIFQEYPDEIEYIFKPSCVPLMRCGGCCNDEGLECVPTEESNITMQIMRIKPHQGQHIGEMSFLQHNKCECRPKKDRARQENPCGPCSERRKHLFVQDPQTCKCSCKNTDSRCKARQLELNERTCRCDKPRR
Description: ELISA; species of VEGF-A not stated.

Experiment [4] concerns the target T2, human HGF. Description: ELISA, EC50 comparison.
Experiment [5] deals with T3, human VEGF-A. Description: ELISA, EC50 comparison.
The target in experiment [6] is T2, human HGF. Description: ELISA; species of HGF not stated.
Experiment [7] addresses T3, human VEGF-A. The experiment in a line: VEGF-A Quantikine competition ELISA; competitor: immobilised anti-VEGF-A monoclonal antibody.
From the text: as §1, with “After washing with PBS 0.05% TWEEN, 100 ng/ml HRP conjugated polyclonal anti HGF species antibody was added for 30 min at RT with shaking at 300 rpm. Detection was using 1:3 diluted BM blue POD (Roche).” left out

T2 sequence (P14210 32-728 limits assumed): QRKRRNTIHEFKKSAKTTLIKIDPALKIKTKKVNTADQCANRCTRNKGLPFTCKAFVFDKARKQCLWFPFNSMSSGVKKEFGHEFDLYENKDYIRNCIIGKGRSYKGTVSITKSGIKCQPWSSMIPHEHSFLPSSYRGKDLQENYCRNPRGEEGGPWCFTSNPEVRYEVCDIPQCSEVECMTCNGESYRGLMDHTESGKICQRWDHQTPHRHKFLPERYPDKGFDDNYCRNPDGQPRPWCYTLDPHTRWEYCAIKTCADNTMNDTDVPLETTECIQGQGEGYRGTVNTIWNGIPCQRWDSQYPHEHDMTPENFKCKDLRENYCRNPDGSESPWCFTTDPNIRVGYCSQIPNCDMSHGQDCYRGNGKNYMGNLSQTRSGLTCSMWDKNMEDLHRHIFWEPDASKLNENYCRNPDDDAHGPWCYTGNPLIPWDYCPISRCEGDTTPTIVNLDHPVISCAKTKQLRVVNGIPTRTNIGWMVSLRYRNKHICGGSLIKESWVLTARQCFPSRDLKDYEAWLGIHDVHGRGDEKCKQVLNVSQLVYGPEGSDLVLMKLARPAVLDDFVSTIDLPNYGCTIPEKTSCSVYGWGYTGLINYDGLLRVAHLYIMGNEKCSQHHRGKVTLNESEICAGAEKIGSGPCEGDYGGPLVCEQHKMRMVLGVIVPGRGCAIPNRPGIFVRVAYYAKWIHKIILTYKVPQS
T1 sequence (P02768 25-609 limits assumed): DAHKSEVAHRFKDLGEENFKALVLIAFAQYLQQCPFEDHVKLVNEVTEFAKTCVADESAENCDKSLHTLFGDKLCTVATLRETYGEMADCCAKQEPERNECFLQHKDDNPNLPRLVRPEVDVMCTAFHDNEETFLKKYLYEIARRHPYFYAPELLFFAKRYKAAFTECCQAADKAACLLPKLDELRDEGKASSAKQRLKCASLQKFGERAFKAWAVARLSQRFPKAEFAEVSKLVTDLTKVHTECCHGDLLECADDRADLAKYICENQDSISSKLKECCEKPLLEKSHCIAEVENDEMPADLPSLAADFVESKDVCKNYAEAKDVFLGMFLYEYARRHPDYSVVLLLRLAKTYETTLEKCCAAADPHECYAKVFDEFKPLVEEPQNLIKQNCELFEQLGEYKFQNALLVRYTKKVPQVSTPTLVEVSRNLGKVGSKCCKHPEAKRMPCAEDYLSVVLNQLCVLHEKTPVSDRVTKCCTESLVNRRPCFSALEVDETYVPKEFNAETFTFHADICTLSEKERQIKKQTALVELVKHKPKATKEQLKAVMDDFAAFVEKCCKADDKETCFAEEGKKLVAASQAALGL

B1: Protein #61 (designed binder)
chain: MRGSHHHHHHGSDLGKKLLEAARAGQDDEVRELLKAGADVNAKDYFSHTPLHLAARNGHLKIVEVLLKAGADVNAKDFAGKTPLHLAANEGHLEIVEVLLKAGADVNAQDIFGKTPADIAADAGHEDIAEVLQKAAGSPTPTPTTPTPTPTTPTPTPTGSDLDKKLLEAARAGQDDEVRILLKAGADVNAKDSTGWTPLHLAAPWGHPEIVEVLLKAGADVNAKDFQGWTPLHLAAAAGHLEIVEVLLKAGADVNAQDKSGKTPADLAADAGHEDIAEVLQKAA
One may read the EC50 as the concentration needed to bring the measured effect to its halfway point. Consider B1, for which it took 0.322 nM to reach a half-maximal effect with human serum albumin (EC50).

B2: Protein #29 (designed binder)
chain: MRGSHHHHHHGSDLGKKLLEAARAGQDDEVRILMANGADVNAKYEDGLTPLHLAAFYGHLEIVEVLLKHGADVNATDAWGHTPLHLAAYYGHLEIVEVLLKYGADVNTHDKEGMTALHLAALTGHLEIVEVLLKNGADVNAQDKFGKTAFDISIDNGNEDLAEILQKAA
A word on the Kd: it is a measure of binding affinity in units of concentration. Read a high Kd as weaker binding. The IC50 is the point on the concentration scale where inhibition reaches its midpoint. A lower IC50 goes with greater potency. The molecule B2 came in with a Kd with human HGF [1] of 0.025 nM. The molecule further gave an IC50 in the experiment with human HGF [2] of 1.36 nM.

B3: Protein #69 (designed binder)
chain: MRGSHHHHHHGSDLGKKLLEAARAGQDDEVRILMANGADVNAKDYFSHTPLHLAARNGHLKIVEVLLKAGADVNAKDFAGKTPLHLAANDGHLEIVEVLLKHGADVNAQDIFGKTPADIAADAGHEDIAEVLQKLGSPTPTPTTPTPTPTTPTPTPTGSRSDLDKKLLEAARAGQDDEVRILLKAGADVNAKDYLGWTPLHLAAHEGHLEIVEVLLKAGADVNAKDVSGYTPLHLAAADGHLEIVEVLLKAGADVNAKDNTGWTPLHLSADLGHLEIVEVLLKAGADVNAQDKFGKTAFDISIDNGNEDLAEILQKLGSPTPTPTTPTPTPTTPTPTPTGSRSDLGKKLLEAARAGQDDEVRILLKAGADVNAKDRYGDTPLHLAADAGHLKIVEVLLKAGADVNAEDYFGNTPLHLAASAGHLEIVEVLLKAGADVNAKDDAGNTPLHLAANTGHLKIVEVLLKAGADVNAQDKSGKTPADLAADAGHEDIAEVLQKLN
For the molecule B3, the figures for the EC50 in the experiment with human VEGF-A [3] and with human HGF [6] were 0.102 nM and 0.117 nM, respectively. The “factor more potent (EC50) than Protein #71” value with human HGF [4] turned out to be 1.3 fold; in the experiment with human VEGF-A [5], 2 fold.

B4: Protein #107 (designed binder)
chain: MRGSHHHHHHGSDLGKKLLEAARAGQDDEVRELLKAGADVNAKDYFSHTPLHLAARNGHLKIVEVLLKAGADVNAKDFAGKTPLHLAANDGHLEIVEVLLKAGADVNAQDIFGKTPADIAADAGHEDIAEVLQKAAGSPTPTPTTPTPTPTTPTPTPTGSDLDKKLLEAARAGQDDEVRILLKAGADVNAKDSTGWTPLHLAAPWGHPEIVEVLLKAGADVNAKDYQGWTPLHLAAAVGHLEIVEVLLKAGADVNAQDKSGKTPADLAADAGHEDIAEVLQKAAGSPTPTPTTPTPTPTTPTPTPTGSDLGKKLLEAARAGQDDEVRILLKAGADVNAKDRYGDTPLHLAADAGHLKIVEVLLKAGADVNAEDYFGNTPLHLAASAGHLEIVEVLLKAGADVNAKDDAGNTPLHLAANTGHLKIVEVLLKAGADVNAQDKSGKTPADLAADAGHEDIAEVLQKAAGSPTPTPTTPTPTPTTPTPTPTGSDLGKKLLEAARAGQDDEVRELLKAGADVNAKDYFSHTPLHLAARNGHLKIVEVLLKAGADVNAKDFAGKTPLHLAANDGHLEIVEVLLKAGADVNAQDIFGKTPADIAADAGHEDIAEVLQKAA
As for B4, the results for the EC50 in the experiment with human VEGF-A [3] and with human HGF [6] were 0.073 nM and 0.107 nM, respectively. In addition, the “factor more potent (EC50) than Protein #69” value with human HGF [4] turned out to be 1.1 fold; in the experiment with human VEGF-A [5], 1.4 fold.

B5: Protein #20 (designed binder)
chain: MRGSHHHHHHGSDLDKKLLEAARAGQDDEVRILLKAGADVNAKDSTGWTPLHLAAPWGHPEIVEVLLKAGADVNAKDFQGWTPLHLAAAVGHLEIVEVLLKAGADVNAQDKSGKTPADLAADAGHEDIAEVLQKAA
Regarding B5, the IC50 with human VEGF-A [7] turned out to be 0.004 nM.

B6: Protein #19 (designed binder)
chain: MRGSHHHHHHGSDLGKKLLEAARAGQDDEVRILLKAGADVNAKDSTGWTPLHLAAPWGHPEIVEVLLKAGADVNAKDFQGWTPLHLAAAAGHLEIVEVLLKAGADVNAQDKSGKTPADLAADAGHEDIAEVLQKAA
As to B6, in the experiment with human VEGF-A [7], the IC50 was 0.013 nM.

B7: Protein #18 (designed binder)
chain: MRGSHHHHHHGSDLDKKLLEAARAGQDDEVRILLKAGADVNAKDSTGWTPLHLAAPWGHPEIVEVLLKAGADVNAKDFQGWTPLHLAAAAGHLEIVEVLLKAGADVNAQDKSGKTPADLAADAGHEDIAEVLQKAA
In the experiment with human VEGF-A [7], B7 yielded an IC50 of 0.013 nM.

B8: Protein #71 (designed binder)
chain: MRGSHHHHHHGSDLGKKLLEAARAGQDDEVRILMANGADVNAKDYFSHTPLHLAARNGHLKIVEVLLKAGADVNAKDFAGKTPLHLAANDGHLEIVEVLLKHGADVNAQDIFGKTPADIAADAGHEDIAEVLQKLGGGGSGGGGSGGGGSGGGGSRSDLDKKLLEAARAGQDDEVRILLKAGADVNAKDYLGWTPLHLAAHEGHLEIVEVLLKAGADVNAKDVSGYTPLHLAAADGHLEIVEVLLKAGADVNAKDNTGWTPLHLSADLGHLEIVEVLLKAGADVNAQDKFGKTAFDISIDNGNEDLAEILQKLGGGGSGGGGSGGGGSGGGGSRSDLGKKLLEAARAGQDDEVRILLKAGADVNAKDRYGDTPLHLAADAGHLKIVEVLLKAGADVNAEDYFGNTPLHLAASAGHLEIVEVLLKAGADVNAKDDAGNTPLHLAANTGHLKIVEVLLKAGADVNAQDKSGKTPADLAADAGHEDIAEVLQKLN
For B8, the EC50 stood at 0.205 nM with human VEGF-A [3] and 0.179 nM with human HGF [6].

B9: Protein #60 (designed binder)
chain: MRGSHHHHHHGSDLGKKLLEAARAGQDDEVRELLKAGADVNAKDYFSHTPLHLAARNGHLKIVEVLLKAGADVNAKDFAGKTPLHLAANEGHLEIVEVLLKAGADVNAQDIFGKTPADIAADAGHEDIAEVLQKAAGSPTPTPTTPTPTPTTPTPTPTGSDLGKKLLEAARAGQDDEVRILLKAGADVNAKDRYGDTPLHLAADIGHLEIVEVLLKAGADVNAEDYFGNTPLHLAASYGHLEIVEVLLKAGADVNAKDDYGNTPLHLAANTGHLEIVEVLLKAGADVNAQDKSGKTPADLAADAGHEDIAEVLQKAA
On to B9, for which the EC50 with human serum albumin is 0.225 nM.
